For ten molecules, binding result and Kd results are on record in patent US20150037349A1 (TECHNOPHAGE INVESTIGA O E DESENVOLVIMENTO EM BIOTECNOLOGIA, published 2015).

Sequences and labels used below:
B1: VL11-VL11 3L (other)
single chain VL-VL dimer: ELVMTQTPASVEAAVGGTVTIKCQASQSISRYLAWYQQKPGQPPKLLIYRASTLASGVSSRFKGSGSGTEFTLTISDLECADAATYYCQSTYVNRGSVAAFGGGTEVVVKSGGGGSGGGGSGGGGSSGELVMTQTPASVEAAVGGTVTIKCQASQSISRYLAWYQQKPGQPPKLLIYRASTLASGVSSRFKGSGSGTEFTLTISDLECADAATYYCQSTYVNRGSVAAFGGGTEVVVK
notes: Hexahistidine tail and HA tag; also called VL11-3L-VL11; VL11-11 #3L
B2: VL18-VL18 3L (other)
single chain VL-VL dimer: ELVLTQTPASVEAAVGGTVTIKCQASQSISSYLAWYQQKPGHPPKLLIYKASTLASGVSSRFKGSGSGTEFTLTISDLECADAATYYCQSTYLGGTYVGGAFGGGTELEILSGGGGSGGGGSGGGGSSGELVLTQTPASVEAAVGGTVTIKCQASQSISSYLAWYQQKPGHPPKLLIYKASTLASGVSSRFKGSGSGTEFTLTISDLECADAATYYCQSTYLGGTYVGGAFGGGTELEIL
notes: Hexahistidine tail and HA tag; also called VL18-3L-VL18; VL18-18 #3L
B3: rat albumin (other)
chain: EAHKSEIAHRFKDLGEQHFKGLVLIAFSQYLQKCPYEEHIKLVQEVTDFAKTCVADENAENCDKSIHTLFGDKLCAIPKLRDNYGELADCCAKQEPERNECFLQHKDDNPNLPPFQRPEAEAMCTSFQENPTSFLGHYLHEVARRHPYFYAPELLYYAEKYNEVLTQCCTESDKAACLTPKLDAVKEKALVAAVRQRMKCSSMQRFGERAFKAWAVARMSQRFPNAEFAEITKLATDVTKINKECCHGDLLECADDRAELAKYMCENQATISSKLQACCDKPVLQKSQCLAEIEHDNIPADLPSIAADFVEDKEVCKNYAEAKDVFLGTFLYEYSRRHPDYSVSLLLRLAKKYEATLEKCCAEGDPPACYGTVLAEFQPLVEEPKNLVKTNCELYEKLGEYGFQNAVLVRYTQKAPQVSTPTLVEAARNLGRVGTKCCTLPEAQRLPCVEDYLSAILNRLCVLHEKTPVSEKVTKCCSGSLVERRPCFSALTVDETYVPKEFKAETFTFHSDICTLPDKEKQIKKQTALAELVKHKPKATEDQLKTVMGDFAQFVDKCCKAADKDNCFATEGPNLVARSKEALA
notes: also called rat serum albumin; albumin from rat sera
B4: VL18-3L-VL11 DI #3 (other)
chain: ELVLTQQPASVEAAPGGTVTIKCQASQSISSYLAWYQQKPGHPPKLLIYKVSTRASGVSSRFSGSGSGTEFTLTISDLKSADAATYYCQSTYLGGTYVGGAFGGGTELEIKSGGGGSGGGGSGGGGSSGELVMTQQPASVEAAPGGTVTIKCQASQSISSYLAWYQQKPGQPPKLLIYRVSTRASGVSSRFSGSGSGTEFTLTISDLKSADAATYYCQSTYVNRGSVAAFGGGTKVVVKYPYDVPDYA
notes: also called Variant 3
B5: VL18-3L-VL11 DI #5 (other)
chain: B4 chain with V51A, R54L, V180A, R183L
notes: also called Variant 5
B6: VL18-3L-VL11 DI #1 (other)
chain: B4 chain with T91A, T220A, A229S
notes: Cloned in pET28a; also called Variant 1
B7: VL11-VL18 3L (other)
single chain VL-VL dimer: ELVMTQTPASVEAAVGGTVTIKCQASQSISRYLAWYQQKPGQPPKLLIYRASTLASGVSSRFKGSGSGTEFTLTISDLECADAATYYCQSTYVNRGSVAAFGGGTEVVVKSGGGGSGGGGSGGGGSSGELVLTQTPASVEAAVGGTVTIKCQASQSISSYLAWYQQKPGHPPKLLIYKASTLASGVSSRFKGSGSGTEFTLTISDLECADAATYYCQSTYLGGTYVGGAFGGGTELEIL
notes: Hexahistidine tail and HA tag; also called VL11-3L-VL18; VL11-18 #3L
B8: rat TNF-alpha (ligand)
chain: LRSSSQNSSDKPVAHVVANHQAEEQLEWLSQRANALLANGMDLKDNQLVVPADGLYLIYSQVLFKGQGCPDYVLLTHTVSRFAISYQEKVSLLSAIKSPCPKDTPEGAELKPWYEPMYLGGVFQLEKGDLLSAEVNLPKYLDITESGQVYFGVIAL
B9: VL18-3L-VL11 DI3-PEP DI #8 (other)
chain: ELVLTQQPASVEAAPGGTVTIKCQASQSISSYLAWYQQKPGHPPKLLIYKVSTRASGVSSRFSGSGSGTEFTLTISDLKSADAATYYCQSTYLGGTYVGGAFGGGTELEIKSGGGGSGGGGSGGGGSSGELVMTQQPASVEAAPGGTVTIKCQASQSISSYLAWYQQKPGQPPKLLIYRVSTRASGVSSRFSGSGSGTEFTLTISDLKSADAATYYCQSTYVNRGSVAAFGGGTKVVVKSGGGGSGGGGSGGGGSSGDITGAALLEAKDAAINELKQYGISDYYVHLINKADTVEGVNALKDEILSALPYPYDVPDYA
notes: De-immunized dimer DI #3 fused to de-immunized PEP; also called Variant 8
B10: VL18-3L-VL11 DI5-PEP DI #9 (other)
chain: B9 chain with V51A, R54L, V180A, R183L
notes: De-immunized dimer DI #5 fused to de-immunized PEP; also called Variant 9

One test addresses T1, BSA (bovine, UniProt P02769).
T1 construct: coated as negative-control antigen; Negative control antigen of the ELISAs; also called bovine serum albumin
In words: ELISA, BSA as negative-control antigen, anti-HA-HRP, OD 405 nm. (In general: ELISA stands for enzyme-linked immunosorbent assay.)

For test [1], the target named is B8. Put plainly: ELISA, rat TNF-alpha coated (80 ng/well), anti-HA-HRP, OD 405 nm, one unstated fragment concentration.
Protocol: (§1) Relative binding activities of VL monomers and constructed dimers were measured for human and rat TNF-alpha, while BSA was used as a negative control. Briefly, a 384-well ELISA plate was coated with 80 ng of human or rat TNF-alpha and incubated overnight at 4° C. Wells were blocked for one hour at 37° C. with 3% BSA in PBS. Antibody fragments were added to the wells and incubated for 1 h at room temperature. After washing the wells with PBS, anti-HA-HRP mAb (Roche) was used for detection.
Test [2] addresses T2, human TNF-alpha (human, UniProt P01375 77-233).
T2 construct: Immobilised on a CM5 chip or coated on ELISA plates
Put plainly: ELISA, human TNF-alpha coated (80 ng/well), anti-HA-HRP, OD 405 nm, one unstated fragment concentration.
Protocol: as §1

Test [3] has as its target T3, VL18-3L-VL11 PEP DI #7.
T3 construct: also called Variant #7
Put plainly: Biacore (SPR). (In SPR one partner is held on a chip, and binding of the other changes the refractive index at the surface.)

The target in test [4] is T2, human TNF-alpha. Put plainly: Biacore (SPR).
The target of test [5] is B8. In words: antigen cross-reactivity, as described in the Examples above.
The target in test [6] is T3, VL18-3L-VL11 PEP DI #7. The description is as above.
The target in another test is T4, human albumin (human, UniProt P02768 25-609).
T4 construct: also called human serum albumin; albumin from human sera
In words: Biacore (SPR).

The target in the test “rat albumin” is B3. Put plainly: Biacore (SPR).
The next test addresses T5, mouse albumin (mouse, UniProt P07724 25-608).
T5 construct: also called mouse serum albumin; albumin from mouse sera
Put plainly: antigen cross-reactivity, as described in the Examples above.

Changes are numbered by the printed parent chain.

T2 sequence (P01375 77-233 limits assumed): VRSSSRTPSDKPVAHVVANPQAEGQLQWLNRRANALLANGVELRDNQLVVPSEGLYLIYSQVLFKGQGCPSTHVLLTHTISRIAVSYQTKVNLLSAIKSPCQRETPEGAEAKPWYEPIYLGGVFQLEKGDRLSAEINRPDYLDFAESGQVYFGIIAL
T1 sequence (P02769 25-607 limits assumed): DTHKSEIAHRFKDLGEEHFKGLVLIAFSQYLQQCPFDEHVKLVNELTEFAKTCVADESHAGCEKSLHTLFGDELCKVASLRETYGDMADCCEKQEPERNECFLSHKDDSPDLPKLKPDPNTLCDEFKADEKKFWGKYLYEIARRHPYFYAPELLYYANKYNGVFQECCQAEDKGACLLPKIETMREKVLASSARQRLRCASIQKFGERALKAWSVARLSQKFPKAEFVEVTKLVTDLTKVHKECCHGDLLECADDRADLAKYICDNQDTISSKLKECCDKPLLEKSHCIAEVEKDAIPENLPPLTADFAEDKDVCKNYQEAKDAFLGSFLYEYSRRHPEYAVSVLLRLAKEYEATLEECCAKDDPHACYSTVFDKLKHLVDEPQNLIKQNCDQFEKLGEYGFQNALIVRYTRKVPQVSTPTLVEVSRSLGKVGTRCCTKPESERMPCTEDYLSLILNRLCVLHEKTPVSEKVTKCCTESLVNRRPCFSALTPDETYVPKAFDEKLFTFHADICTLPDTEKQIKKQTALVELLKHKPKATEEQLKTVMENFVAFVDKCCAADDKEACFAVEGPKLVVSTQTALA
T4 sequence (P02768 25-609 limits assumed): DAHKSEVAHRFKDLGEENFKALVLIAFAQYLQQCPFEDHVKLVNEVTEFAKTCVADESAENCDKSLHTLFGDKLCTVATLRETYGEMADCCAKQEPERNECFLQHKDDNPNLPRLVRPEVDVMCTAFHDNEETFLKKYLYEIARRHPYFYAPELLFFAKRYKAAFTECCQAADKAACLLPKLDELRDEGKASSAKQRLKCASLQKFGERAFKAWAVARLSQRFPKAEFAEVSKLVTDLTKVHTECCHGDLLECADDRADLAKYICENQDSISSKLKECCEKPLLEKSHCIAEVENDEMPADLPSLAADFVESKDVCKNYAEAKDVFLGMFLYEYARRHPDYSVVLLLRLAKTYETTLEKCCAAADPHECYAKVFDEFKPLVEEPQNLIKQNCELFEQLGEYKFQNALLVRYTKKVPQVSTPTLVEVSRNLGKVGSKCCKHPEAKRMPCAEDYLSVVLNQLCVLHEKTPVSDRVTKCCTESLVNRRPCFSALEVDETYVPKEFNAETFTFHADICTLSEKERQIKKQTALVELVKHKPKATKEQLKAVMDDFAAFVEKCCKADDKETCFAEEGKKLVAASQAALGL
Protocol for BSA: as §1

B1: the binding result in the test with BSA is “no binding”; with rat TNF-alpha [1], “binds”; with human TNF-alpha [2] it was “binds”.
Turning to B2, the binding result is listed as “no binding” with BSA, “binds” in the test with rat TNF-alpha [1] and “binds” in the test with human TNF-alpha [2].
As usually defined, the Kd is a measure of binding affinity in units of concentration. Regarding B3, in the test with VL18-3L-VL11 PEP DI #7 [3], the Kd is 28.1 nM.
Molecule B4 showed a Kd in the test with human TNF-alpha [4] of 0.7 nM. Also, the binding result with rat TNF-alpha [5] is on record as “binds”.
For B5, binding with human TNF-alpha [4] was characterised by a dissociation constant (Kd) of 0.8 nM. Further, the binding result with rat TNF-alpha [5] is reported as “binds”.
B6: the binding result with rat TNF-alpha [5] was “binds”.
With B7, the binding result was “no binding” with BSA, “binds” with rat TNF-alpha [1] and “binds” in the test with human TNF-alpha [2].
As to B8, the binding result with VL18-3L-VL11 PEP DI #7 [6] is listed as “binds”.
As for B9, the Kd with human TNF-alpha [4] turned out to be 0.6 nM; in the test with human albumin, 88.5 nM; with rat albumin, 22.4 nM.
On to B10, for which the results for the Kd in the test with human TNF-alpha [4], with human albumin and in the test with rat albumin were 0.4 nM, 92 nM and 32 nM, respectively. Besides, the binding result in the test with mouse albumin and in the test with rat TNF-alpha [5] was “binds” each time.
